Here are results for 3 molecules from US20120204273A1, “COMPOSITIONS RELATING TO A PHOSPHOPROTEIN AND METHODS OF USE” (SANFORD-BURNHAM MEDICAL RESEARCH INSTITUTE, priority 2010, published 2012).

One assay concerns 3T3-L1 adipocytes. Nature of the assay: myc-GLUT4-GFP translocation to the cell surface. Type of assay: cell-based, mouse. As to conditions: insulin 100 nM, 30 min. The procedure: FIG. 2, panels A-C show knockdown of CDP138 in 3T3-L1 adipocytes inhibits insulin-stimulated glucose transport (A) and myc-GLUT4-GFP translocation (B), but not endogenous GLUT4 movement to the periphery detected in TIRF zone (C). (A): Differentiated adipocytes at day 5 were transfected with siRNAs against mouse 5730419I09Rik or the scrambled siRNA (Scr) as described earlier (Jiang et al., 2003) for 60 hrs, then serum starved overnight. Cells were then treated with or without insulin (1 nM and 100 nM) for 30 min for the glucose uptake assay, or 15 min for immunoblotting of CDP138, pAkt, Akt and β-actin. Glucose transport data are presented as mean±SD of 4 independent experiments. *P<0.05 vs Scr Insulin (1 nM) group; **P<0.01 vs Scr Insulin (100 nM) group. (B): Day 5 adipocytes were transfected with siRNAs and myc-GLUT4-GFP for 60 hrs and then serum starved overnight. Cells were then treated with insulin (1 nM) for 20 min. Cell surface Myc-GLUT4-GFP was detected with anti-myc monoclonal Ab (9E10) and Alexa Fluor 568-labeled goat anti-mouse IgG in non-permeablized cells. The Myc signal and GFP signal were quantified as previously described (Jiang et al., 2002). Data presented are representative microscopic images and mean±SD of about 160 GFP-positive cells in each group from three independent experiments. **P<0.01 vs Scr Insulin (1 nM) group. […] GLUT4 was detected with a goat anti-GLUT4 Ab and Alexa Fluor 488-conjugated donkey anti-goat Ab in permeabilized cells. Top and middle panels show 100 nm TIRF zone and representative GLUT4 TIRFM images, respectively. Data are mean±SD of 3 independent experiments. **P<0.01 vs Scr Insulin groups.
GLUT4 translocation detection with wide field fluorescence and TIRF microscopy: Both wide field and TIRF microscopy were used to detect myc-GLUT4-GFP translocation to the cell surface as previously described (Jiang et al., 2002) and herein.
To test the effect of RNAi-induced gene specific knockdown of CDP138 or overexpression of CDP138 mutants on GLUT4 translocation, siRNAs or CDP138 constructs were transfected into adipocytes together with myc-GLUT4-GFP by electroporation as previously described (Jiang et al, 2003). […] Cells were washed with cold PBS, fixed with 4% formaldehyde and immunostained. Briefly, for siRNA study, the cell surface Myc-GLUT4-GFP was visualized with mouse anti-Myc Ab (9E10) and AlexaFluoro568-labeled goat anti-mouse secondary Ab (Invitrogen) in PBS containing 1% FBS. After washing, the coverslip were mounted with Prolong antifade reagent (Invitrogen, Eugene Oreg.). Fluorescence microscopy was carried as described below. Then, images were acquired with wide field microscopy as described below. For the study with overexpressed HAtagged CDP138 constructs, the cell surface Myc-GLUT4-GFP was visualized with rabbit anti-Myc Ab (Cell signaling, Inc) and AlexaFluoro568-labeled goat anti-rabbit secondary Ab (InVitrogen) in PBS containing 1% FBS. Cells were further permeabilized with PSB containing 0.5% Tween-20, and HA-tagged protein was detected with a mouse anti-HA epitope primary Ab followed by AlexaFluoro-350-labelled goat anti-mouse IgG. Insulin-induced myc-GLUT4 accumulation (AlexaFluoro-568 signal) within the evanescence excitation field (100 nm from dorsal membrane) in transfected adipocytes was measured with a Nikon Eclipse-Ti microscope equipped with a CoolSNAP HQ2 camera and laser scanning TIRF capacity. Total GLUT4-GFP signals and […] Alexa Fluoro-350 signals were acquired with wide field imaging to identify double-transfected cells. The ratio of myc-GLUT4 signal in the TIRF zone to the total Epi-GFP signal in wide field was used as a measure of GLUT4 translocation to the cell surface.
Image Analysis and Quantification: TIRF and wide field fluorescence microscopy were performed using a Nikon inverted microscope (Melville, N.Y.) with a cooled charge-coupled device camera. […]

A further assay relates to CHO-T cells. Nature of the assay: Cell division of CHO-T cells overexpressing HA-CDP138. Type of assay: cell-based. An excerpt:
Large cells bodies with multiple nuclei were formed in HA-tagged CDP138 positive CHO-T cells.
HA-CDP138 positive cell is 3-5 times bigger than HA-negative cells (FIG. 14).

The subject of assay [1] is PC12 cells. Nature of the assay: Survival of differentiated PC12 neuronal cells under serum starvation. Type of assay: cell-based. As to conditions: for cell death / survival after 24 hours of starvation / cell death within 14 hours of starvation: transfected 24 h, NGF 24 h, serum starved. The procedure: Cells were serum starved for 6 hours (6 H), 14 hours (14 H) or 24 hours (24 H) before counting the number of cells in two wells.
Cells were serum starved for 24 hours before counting the number of bid surviving differentiated neuronal cells in two wells.
In order to determine the affects of CDP138 of neuronal cell survival, PC12 cells were transfected with wild-type CDP138-WT vector, dominant negative mutant CDP138-5DA vector or an empty vector for 24 h followed by adding NGF (neuron growth factor) for 24 h. Then cells were serum starved for 6 hours, 14 hour, and 24 hour before counting cell number in 2 wells.
(§1) In addition to counting the total number of cells that survived, the number of big surviving differentiated neuronal cells were also assessed following 24 hours of starvation. […] This was a 50% increase in the number of big differentiated cells.

Assay [2] relates to PC12 cells. Nature of the assay: NGF-induced neurite outgrowth in PC12 cells. Type of assay: cell-based. The procedure: FIG. 13, panels A and B, show the expression pattern of CDP138 in various tissues and the effects of overexpressed wild-type and mutant CDP138 in neuronal growth factor (NGF)-induced neurite outgrowth in PC12 cells. A: CDP138 is highly expressed in the brain and distributed in the neurite and synapse of neuronal cells. 30 μg of total protein was assayed for all tissues, except only 15 μg of total protein from brain tissue was assayed in the immunoblotting of panel A. Exemplary protein distribution of CDP138-mCherry in a PC12 cell is also shown. B: Overexpressed CDP138-WT enhances neurite growth, whereas the CDP138-5DA mutant had the opposite effect.
as §1

B1: HA-CDP138-WT: full-length human KIAA0528 (CDP138) tagged with 3HA epitope at the N-terminus, pCMV5 vector (protein)
chain: MPGKLKVKIVAGRHLPVMDRASDLTDAFVEVKFGNTTFKTDVYLKSLNPQWNSEWFKFEVDDEDLQDEPLQITVLDHDTYSANDAIGKVYIDIDPLLYSEAATVISGWFPIYDTIHGIRGEINVVVKVDLFNDLNRFRQSSCGVKFFCTTSIPKCYRAVIIHGFVEELVVNEDPEYQWIDRIRTPRASNEARQRLISLMSGELQRKIGLKVLEMRGNAVVGYLQCFDLEGESGLVVRAIGTACTLDKLSSPAAFLPACNSPSKEMKEIPFNEDPNPNTHSSGPSTPLKNQTYSFSPSKSYSRQSSSSDTDLSLTPKTGMGSGSAGKEGGPFKALLRQQTQSALEQREFPFFTLTAFPPGFLVHVGGVVSARSVKLLDRIHNPDEPETRDAWWAEIRQEIKSHAKALGCHAVVGYSESTSICEEVCILSASGTAAVLNPRFLQDGTVEGCLEQRLEENLPTRCGFCHIPYDELNMPFPAHLTYCYNCRKQKVPDVLFTTIDLPTDATVIGKGCLIQARLCRLKKKAQAEANATAISNLLPFMEYEVHTQLMNKLKLKGMNALFGLRIQITVGENMLMGLASATGVYLAALPTPGGIQIAGKTPNDGSYEQHISHMQKKINDTIAKNKELYEINPPEISEEIIGSPIPEPRQRSRLLRSQSESSDEVTELDLSHGKKDAFVLEIDDTDAMEDVHSLLTDVPPPSGFYSCNTEIMPGINNWTSEIQMFTSVRVIRLSSLNLTNQALNKNFNDLCENLLKSLYFKLRSMIPCCLCHVNFTVSLPEDELIQVTVTAVAITFDKNQALQTTKTPVEKSLQRASTDNEELLQFPLELCSDSLPSHPFPPAKAMTVEKASPVGDGNFRNRSAPPCANSTVGVVKMTPLSFIPGAKITKYLGIINMFFIRETTSLREEGGVSGFLHAFIAEVFAMVRAHVAALGGNAVVSYIMKQCVFMENPNKNQAQCLINVSGDAVVFVRESDLEVVSSQQPTTNCQSSCTEGEVTT
With B1, the “effect of overexpression on insulin-stimulated myc-GLUT4-GFP translocation (TIRF myc / Epi GFP)” value in the assay on 3T3-L1 adipocytes was “did not significantly alter”. The “size of positive cells relative to HA-negative cells” value in the assay on CHO-T cells is listed as 3-5 times. In addition, the “positive cells with big multiple nuclei” value in the assay on CHO-T cells (three different experiments) is listed as “about 24.6%”.

B2: CDP138-WT: wild-type CDP138 vector transfected into PC12 cells (protein, UniProt Q86YS7 1-1000, looked up)
C2 domain-containing protein 5: MPGKLKVKIVAGRHLPVMDRASDLTDAFVEVKFGNTTFKTDVYLKSLNPQWNSEWFKFEVDDEDLQDEPLQITVLDHDTYSANDAIGKVYIDIDPLLYSEAATVISGWFPIYDTIHGIRGEINVVVKVDLFNDLNRFRQSSCGVKFFCTTSIPKCYRAVIIHGFVEELVVNEDPEYQWIDRIRTPRASNEARQRLISLMSGELQRKIGLKVLEMRGNAVVGYLQCFDLEGESGLVVRAIGTACTLDKLSSPAAFLPACNSPSKEMKEIPFNEDPNPNTHSSGPSTPLKNQTYSFSPSKSYSRQSSSSDTDLSLTPKTGMGSGSAGKEGGPFKALLRQQTQSALEQREFPFFTLTAFPPGFLVHVGGVVSARSVKLLDRIHNPDEPETRDAWWAEIRQEIKSHAKALGCHAVVGYSESTSICEEVCILSASGTAAVLNPRFLQDGTVEGCLEQRLEENLPTRCGFCHIPYDELNMPFPAHLTYCYNCRKQKVPDVLFTTIDLPTDATVIGKGCLIQARLCRLKKKAQAEANATAISNLLPFMEYEVHTQLMNKLKLKGMNALFGLRIQITVGENMLMGLASATGVYLAALPTPGGIQIAGKTPNDGSYEQHISHMQKKINDTIAKNKELYEINPPEISEEIIGSPIPEPRQRSRLLRSQSESSDEVTELDLSHGKKDAFVLEIDDTDAMEDVHSLLTDVPPPSGFYSCNTEIMPGINNWTSEIQMFTSVRVIRLSSLNLTNQALNKNFNDLCENLLKSLYFKLRSMIPCCLCHVNFTVSLPEDELIQVTVTAVAITFDKNQALQTTKTPVEKSLQRASTDNEELLQFPLELCSDSLPSHPFPPAKAMTVEKASPVGDGNFRNRSAPPCANSTVGVVKMTPLSFIPGAKITKYLGIINMFFIRETTSLREEGGVSGFLHAFIAEVFAMVRAHVAALGGNAVVSYIMKQCVFMENPNKNQAQCLINVSGDAVVFVRESDLEVVSSQQPTTNCQSSCTEGEVTT
As for B2, in the assay on PC12 cells [1] (24 hours of starvation), the “increase in the number of big differentiated cells over empty vector” value worked out at 50% and the “number of big differentiated neuronal cells per well” value is “approximately 1650 per well”. For the same molecule, in the assay on PC12 cells [1], the “cell death / survival after 24 hours of starvation” value is reported as “continued to survive” and the “cell death within 14 hours of starvation” value was “no appreciable cell death”. In the assay on PC12 cells [2], the “increase in cell body length (fold over cell body length, NGF-induced neurite outgrowth)” value is given as about 4 fold.

B3: CDP138-5DA: dominant negative mutant CDP138-5DA vector transfected into PC12 cells (protein, UniProt Q86YS7 1-1000, looked up, variant D19A D26A D76A D78A D84A)
C2 domain-containing protein 5: MPGKLKVKIVAGRHLPVMARASDLTAAFVEVKFGNTTFKTDVYLKSLNPQWNSEWFKFEVDDEDLQDEPLQITVLAHATYSANAAIGKVYIDIDPLLYSEAATVISGWFPIYDTIHGIRGEINVVVKVDLFNDLNRFRQSSCGVKFFCTTSIPKCYRAVIIHGFVEELVVNEDPEYQWIDRIRTPRASNEARQRLISLMSGELQRKIGLKVLEMRGNAVVGYLQCFDLEGESGLVVRAIGTACTLDKLSSPAAFLPACNSPSKEMKEIPFNEDPNPNTHSSGPSTPLKNQTYSFSPSKSYSRQSSSSDTDLSLTPKTGMGSGSAGKEGGPFKALLRQQTQSALEQREFPFFTLTAFPPGFLVHVGGVVSARSVKLLDRIHNPDEPETRDAWWAEIRQEIKSHAKALGCHAVVGYSESTSICEEVCILSASGTAAVLNPRFLQDGTVEGCLEQRLEENLPTRCGFCHIPYDELNMPFPAHLTYCYNCRKQKVPDVLFTTIDLPTDATVIGKGCLIQARLCRLKKKAQAEANATAISNLLPFMEYEVHTQLMNKLKLKGMNALFGLRIQITVGENMLMGLASATGVYLAALPTPGGIQIAGKTPNDGSYEQHISHMQKKINDTIAKNKELYEINPPEISEEIIGSPIPEPRQRSRLLRSQSESSDEVTELDLSHGKKDAFVLEIDDTDAMEDVHSLLTDVPPPSGFYSCNTEIMPGINNWTSEIQMFTSVRVIRLSSLNLTNQALNKNFNDLCENLLKSLYFKLRSMIPCCLCHVNFTVSLPEDELIQVTVTAVAITFDKNQALQTTKTPVEKSLQRASTDNEELLQFPLELCSDSLPSHPFPPAKAMTVEKASPVGDGNFRNRSAPPCANSTVGVVKMTPLSFIPGAKITKYLGIINMFFIRETTSLREEGGVSGFLHAFIAEVFAMVRAHVAALGGNAVVSYIMKQCVFMENPNKNQAQCLINVSGDAVVFVRESDLEVVSSQQPTTNCQSSCTEGEVTT
B3: the “number of big differentiated neuronal cells per well” value in the assay with PC12 cells [1] (24 hours of starvation) is on record as “did not form any”. Besides, in the assay on PC12 cells [1], the “cell death / survival after 24 hours of starvation” value is “the highest amount of cell death” and the “cell death within 14 hours of starvation” value is “significant cell death”. For the same molecule, in the assay with PC12 cells [2], the “increase in cell body length (fold over cell body length, NGF-induced neurite outgrowth)” value is given as “approximately 1 fold”.
